Earlier results on 1 molecule are cited in US20110110932A1, “COMBINATION TREATMENT FOR OCULAR DISEASES” (OPHTHOTECH CORP., priority 2009, published 2011).

Read-outs that look alike come from different tables or passages of the source.

The test system of series [1] is choroidal neovascularization (CNV). To be noted: rabbits, CNV induced by VEGF/bFGF pellets.
Series [2] has the same test system. To be noted: cynomolgus monkeys, laser induced CNV.
The target of another series is α5β1 integrin (Homo sapiens, UniProt P05556+P08648).
Sequence of α5β1 integrin (P08648 42-894 limits assumed): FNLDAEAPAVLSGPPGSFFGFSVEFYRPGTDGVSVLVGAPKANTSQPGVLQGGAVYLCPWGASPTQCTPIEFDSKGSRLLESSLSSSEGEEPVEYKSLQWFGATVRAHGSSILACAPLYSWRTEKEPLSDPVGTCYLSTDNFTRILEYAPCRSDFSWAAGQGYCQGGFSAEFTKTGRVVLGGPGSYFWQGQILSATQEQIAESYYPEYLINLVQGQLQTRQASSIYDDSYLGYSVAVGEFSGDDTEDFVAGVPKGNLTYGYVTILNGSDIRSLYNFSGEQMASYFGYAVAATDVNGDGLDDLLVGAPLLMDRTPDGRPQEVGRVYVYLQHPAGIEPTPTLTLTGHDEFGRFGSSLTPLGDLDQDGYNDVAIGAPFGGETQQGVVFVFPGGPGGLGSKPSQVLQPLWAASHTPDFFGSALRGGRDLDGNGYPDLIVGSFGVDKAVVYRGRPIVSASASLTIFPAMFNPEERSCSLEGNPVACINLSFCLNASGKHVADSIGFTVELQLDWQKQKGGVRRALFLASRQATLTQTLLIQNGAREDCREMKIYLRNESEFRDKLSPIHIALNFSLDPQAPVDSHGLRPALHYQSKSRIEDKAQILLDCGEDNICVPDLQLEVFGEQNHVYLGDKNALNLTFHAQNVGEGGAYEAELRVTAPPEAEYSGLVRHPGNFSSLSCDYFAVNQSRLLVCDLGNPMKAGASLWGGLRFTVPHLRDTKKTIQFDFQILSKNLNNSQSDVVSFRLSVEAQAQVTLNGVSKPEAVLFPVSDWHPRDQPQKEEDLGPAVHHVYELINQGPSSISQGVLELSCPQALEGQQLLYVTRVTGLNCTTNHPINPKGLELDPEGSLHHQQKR
Sequence of α5β1 integrin (P08648 895-1049 limits assumed): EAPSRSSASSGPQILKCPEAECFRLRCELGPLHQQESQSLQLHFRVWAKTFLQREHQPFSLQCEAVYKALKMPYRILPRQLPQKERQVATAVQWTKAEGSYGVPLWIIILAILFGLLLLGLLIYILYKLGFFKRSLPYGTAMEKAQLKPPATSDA
Sequence of α5β1 integrin (P05556 21-798): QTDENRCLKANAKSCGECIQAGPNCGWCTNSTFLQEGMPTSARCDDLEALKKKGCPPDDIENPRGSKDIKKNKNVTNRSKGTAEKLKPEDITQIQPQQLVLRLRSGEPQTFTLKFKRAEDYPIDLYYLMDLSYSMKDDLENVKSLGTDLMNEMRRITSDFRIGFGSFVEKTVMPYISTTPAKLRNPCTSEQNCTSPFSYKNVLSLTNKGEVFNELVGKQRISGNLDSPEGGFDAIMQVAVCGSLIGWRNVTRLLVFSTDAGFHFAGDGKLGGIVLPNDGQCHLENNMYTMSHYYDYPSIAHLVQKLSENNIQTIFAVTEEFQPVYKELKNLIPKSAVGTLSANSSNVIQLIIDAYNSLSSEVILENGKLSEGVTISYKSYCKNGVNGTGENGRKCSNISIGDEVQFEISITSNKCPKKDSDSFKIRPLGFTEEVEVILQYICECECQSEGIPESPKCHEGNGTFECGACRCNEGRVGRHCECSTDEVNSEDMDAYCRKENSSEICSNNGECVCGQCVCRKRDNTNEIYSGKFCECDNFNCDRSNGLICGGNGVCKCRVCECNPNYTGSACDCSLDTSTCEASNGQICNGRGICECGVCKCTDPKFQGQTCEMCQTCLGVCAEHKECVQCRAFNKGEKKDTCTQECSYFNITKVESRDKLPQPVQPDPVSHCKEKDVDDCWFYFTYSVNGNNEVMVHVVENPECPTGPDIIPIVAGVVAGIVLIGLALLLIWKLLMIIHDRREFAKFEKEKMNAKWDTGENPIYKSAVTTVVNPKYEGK

B1: F200: Fab fragment of volociximab; heavy chain SEQ ID NO: 6, light chain same as M200 (antibody, chains of the INN, looked up, V domains shown)
VH: QVQLKESGPGLVAPSQSLSITCTISGFSLTDYGVHWVRQPPGKGLEWLVVIWSDGSSTYNSALKSRMTIRKDNSKSQVFLIMNSLQTDDSAMYYCARHGTYYGMTTTGDALDYWGQGTSVTVSS
VL: QIVLTQSPAIMSASLGERVTMTCTASSSVSSNYLHWYQQKPGSAPNLWIYSTSNLASGVPARFSGSGSGTSYSLTISSMEAEDAATYYCHQYLRSPPTFGGGTKLEIK
modifications: Fab
B1: the anti-angiogenic activity result in series [1] and in series [2] was “significant anti-angiogenic activity” throughout. The “α5β1 integrin antagonistic activity” value in the series with α5β1 integrin is on record as “shown to have α5β1 integrin antagonistic activity”.
